# From patent publication US20230051847A1 (Johns Hopkins, published 2023)
# How the values were obtained:
# RAS Q61WT[55-64] pHLA-A1 [1] = molecular target: T1, RAS Q61WT[55-64] pHLA-A1 (human); assay: flow cytometry, phage on peptide-pulsed SigM5 cells; anti-M13, anti-rabbit PE
# T1 construct: also called Q61WT pHLA-A1; H/K/N RAS WT(55-64) peptide on HLA-A1
# RAS Q61WT[55-64] pHLA-A1 [2] = molecular target: T1, RAS Q61WT[55-64] pHLA-A1; assay: as above; remark: listed apart in the source
# RAS Q61WT[55-64] pHLA-A1 [3] = molecular target: T1, RAS Q61WT[55-64] pHLA-A1; assay: ELISA, scDb at 10 nM on titrated biotinylated pHLA-A1 on streptavidin plate; protein L, anti-protein L HRP
# RAS Q61WT[55-64] pHLA-A1 [4] = molecular target: T1, RAS Q61WT[55-64] pHLA-A1; assay: flow cytometry, phage on peptide-pulsed SigM5 cells; anti-M13, anti-rabbit PE; remark: listed apart in the source
# p53^WT/HLA-A*02:01 pHLA = p53^WT/HLA-A*02:01 pHLA (human); assay: ELISA, scDb on biotinylated pHLA on streptavidin plate; protein L, anti-protein L HRP
# Protocol: Streptavidin-coated, 96-well plates (R&D Systems, Minneapolis, Minn., CP004) were coated with 50 ng of biotinylated HLA-A*02:01 pHLA monomers in 50 μL of blocking buffer (PBS with 0.5% BSA, 2 mM EDTA, and 0.1% sodium azide) or 25 ng of recombinant human CD3/6 (Acro Biosystems, DE, CDD-H52W4) at 4° C. overnight. […] Serial dilutions of scDb or IgG was incubated on the plate for 1 hour at RT and washed.
binder,measurement,setting,value
"H/K/N RAS Q61L_A1_cl2 (L2) (scFv, also called Q61L clone L2; L2 scFv) scFv: DIQMTQSPSSLSASVGDRVTITCRASQDVNTAVAWYQQKPGKAPKLLIYSASFLYSGVPSRFSGSRSGTDFTLTISSLQPEDFATYYCQQAVSYPWTFGQGTKVEIKRTGGGSGGGGSGGGASEVQLVESGGGLVQPGGSLRLSCAASGFNISSSGIHWVRQAPGKGLEWVAMVYGGSGYTNYADSVKGRFTISADTSKNTAYLQMNSLRAEDTAVYYCSRWAHYSAYMDYWGQGTLVTVSS",binding result,RAS Q61WT[55-64] pHLA-A1 [1],no binding (tested: single dose (50 µL phage supernatant))
"H/R/N RAS Q61R_A1_cl6 (R6) (scFv, also called Q61R clone R6; R6 scFv) scFv: DIQMTQSPSSLSASVGDRVTITCRASQDVNTAVAWYQQKPGKAPKLLIYSASFLYSGVPSRFSGSRSGTDFTLTISSLQPEDFATYYCQQYSNYPLTFGQGTKVEIKRTGGGSGGGGSGGGASEVQLVESGGGLVQPGGSLRLSCAASGFNVFYGSMHWVRQAPGKGLEWVAFIGPDSTYTYYADSVKGRFTISADTSKNTAYLQMNSLRAEDTAVYYCSRDLGSAYAMDYWGQGTLVTVSS",binding result,RAS Q61WT[55-64] pHLA-A1 [2],no binding (tested: single dose (50 µL phage supernatant))
H1-U scDb (bispecific antibody) DIQMTQSPSSLSASVGDRVTITCRASQDVNTAVAWYQQKPGKAPKLLIYSASFLYSGVPSRFSGSRSGTDFTLTISSLQPEDFATYYCQQVIYYPFTFGQGTKVEIKGGGGSEVQLQQSGPELVKPGASMKISCKASGYSFTGYTMNWVKQSHGKNLEWMGLINPYKGVSTYNQKFKDKATLTVDKSSSTAYMELLSLTSEDSAVYYCARSGYYGDSDWYFDVWGAGTTVTVSSGGGGSGGGGSGGGGSDIQMTQTTSSLSASLGDRVTISCRASQDIRNYLNWYQQKPDGTVKLLIYYTSRLHSGVPSKFSGSGSGTDYSLTISNLEQEDIATYFCQQGNTLPWTFAGGTKLEIKGGGGSEVQLVESGGGLVQPGGSLRLSCAASGFNLYSYAIHWVRQAPGKGLEWVALLYPDYGVTSYADSVKGRFTISADTSKNTAYLQMNSLRAEDTAVYYCSRYRSYEYSVSSYSYSAMDYWGQGTLVTVSSHHHHHH,binding result,RAS Q61WT[55-64] pHLA-A1 [3],"no binding (tested: 10 ug/mL coated pHLA-A1, scDb at 10 nM)"
"H/K/N RAS Q61H_A1_cl1 (H1) (scFv, also called Q61H clone H1; H1 scFv) scFv: DIQMTQSPSSLSASVGDRVTITCRASQDVNTAVAWYQQKPGKAPKLLIYSASFLYSGVPSRFSGSRSGTDFTLTISSLQPEDFATYYCQQVIYYPFTFGQGTKVEIKRTGGGSGGGGSGGGASEVQLVESGGGLVQPGGSLRLSCAASGFNLYSYAIHWVRQAPGKGLEWVALLYPDYGVTSYADSVKGRFTISADTSKNTAYLQMNSLRAEDTAVYYCSRYRSYEYSVSSYSYSAMDYWGQGTLVTVSS",binding result,RAS Q61WT[55-64] pHLA-A1 [4],no binding (tested: single dose (50 µL phage supernatant))
"H20-UCHT1-scDb (bispecific antibody, single-chain diabody of H20 with the anti-CD3 scFv UCHT1; also called H20-scDb) DIQMTQSPSSLSASVGDRVTITCRASQDVNTAVAWYQQKPGKAPKLLIYSASFLYSGVPSRFSGSRSGTDFTLTISSLQPEDFATYYCQQSNAYPITFGQGTKVEIKGGGGSEVQLQQSGPELVKPGASMKISCKASGYSFTGYTMNWVKQSHGKNLEWMGLINPYKGVSTYNQKFKDKATLTVDKSSSTAYMELLSLTSEDSAVYYCARSGYYGDSDWYFDVWGAGTTVTVSSGGGGSGGGGSGGGGSDIQMTQTTSSLSASLGDRVTISCRASQDIRNYLNWYQQKPDGTVKLLIYYTSRLHSGVPSKFSGSGSGTDYSLTISNLEQEDIATYFCQQGNTLPWTFAGGTKLEIKGGGGSEVQLVESGGGLVQPGGSLRLSCAASGFNLNSYYMHWVRQAPGKGLEWVAMIIPGYGYTNYADSVKGRFTISADTSKNTAYLQMNSLRAEDTAVYYCSRSYYMYMDYWGQGTLVTVSSHHHHHH",binding result,p53^WT/HLA-A*02:01 pHLA,binds
